Results: patent US20160002343A1 (AbbVie / Abbott, published 2016)
Blank lines part the entries; values can stand above or below the binder they belong to.

Experiments:
[1] = target: T1, mouse Transferrin Receptor overexpressed on Hek 293 cells (mouse, UniProt Q62351 1-763); assay: EC50 column of Table 13, taken as the cell-based mTfR binding assay
T1 construct: whole, on cells; also called mTfR; Hek293/mTfR
Description: (§1) Meso-scale Discovery (MSD) Electrochemiluminescence (ECL) assays to screen for antibodies or DVD-Ig proteins that bind a desired target antigen expressed on the cell surface were performed as follows: Hek 293 cells overexpressing mouse Transferrin Receptor were added onto MSD 96-well plates (MSD Cat# L11 XB-3, lot#2290-EA). The plates which were blocked using blocking buffer (30% FBS Serum (Hyclone) in PBS) at 37° C. for 1 hour. After incubating at room temperature (RT) for 30 minutes with mild agitation, plates were washed with DPBS 3 times and Abs/DVD-Ig proteins (10,000 ng/ml) were added. After incubating for 1 hour at RT, plates were washed 3 times with DPBS and 25 μl of Goat anti-human Sulfo TAG (MSD Cat# R32AC-, Lot# W001162) at 1 μg/ml was added. Following incubation at RT for 1 hour, plates were washed and MSD read buffer was added before reading on a MSD SECTOR Imager 6000. EC50 values were obtained using Xlfit4 software package.

[2] = target: T1, mouse Transferrin Receptor …; assay: cell-based MSD-ECL binding, Hek293/mTfR cells
Description: as §1

[3] = target: mouse Transferrin Receptor overexpressed on Hek 293 cells (mouse) (UniProt Q62351); assay: mTfR binding cell-based assay
[4] = target: mouse Transferrin Receptor overexpressed on Hek 293 cells (mouse) (UniProt Q62351); assay: cell-based MSD-ECL binding, Hek293/mTfR cells
[5] = target: T2, rmTfR (123-763) (mouse, UniProt Q62351 123-763); assay: Biacore SPR, antibody captured by anti-human IgG Fc, rmTfR (123-763) in solution
T2 construct: range 123-763; also called recombinant mouse transferrin receptor 123-763
Description: The BIACORE assay (Biacore, Inc, Piscataway, N.J.) was used to determine the affinity of antibodies or DVD-Ig proteins with kinetic measurements of on-rate and off-rate constants. Binding of antibodies or DVD-Ig protein to a target antigen (for example, a purified recombinant target antigen) was determined by surface plasmon resonance-based measurements with a Biacore® 1000 or 3000 instrument (Biacore® AB, Uppsala, Sweden) using running HBS-EP (10 mM HEPES [pH 7.4], 150 mM NaCl, 3 mM EDTA, and 0.005% surfactant P20) at 25° C. All chemicals were obtained from Biacore® AB (Uppsala, Sweden) or otherwise from a different source as described in the text. For example, approximately 5000 RU of goat anti-human IgG, (Fcγ), fragment specific polyclonal antibody (Pierce Biotechnology Inc, Rockford, Ill.) diluted in 10 mM sodium acetate (pH 4.5) was directly immobilized across a CM5 research grade biosensor chip using a standard amine coupling kit according to manufacturer's instructions and procedures at 25 μg/ml. Unreacted moieties on the biosensor surface were blocked with ethanolamine. Modified carboxymethyl dextran surface in flowcell 2 and 4 was used as a reaction surface. Unmodified carboxymethyl dextran without goat anti-human IgG in flow cell 1 and 3 was used as the reference surface. For kinetic analysis, rate equations derived from the 1:1 Langmuir binding model were fitted simultaneously to association and dissociation phases of all eight injections (using global fit analysis) with the use of BIAevaluation 4.0.1 software. Purified antibodies or DVD-Ig proteins were diluted in HEPES-buffered saline for capture across goat anti-human IgG specific reaction surfaces. Antibodies or DVD-Ig proteins to be captured as ligands (25 μg/ml) were injected over reaction matrices at a flow rate of 5 μl/minute. The association and dissociation rate constants, kon (M⁻¹ s⁻¹) and koff (s⁻¹) were determined under a continuous flow rate of 25 μl/minute. Rate constants were derived by making kinetic binding measurements at different antigen concentrations ranging from 10-200 nM. The equilibrium dissociation constant (M) of the reaction between antibodies or DVD-Ig proteins and the target antigen was then calculated from the kinetic rate constants by the following formula: KD=koff/kon. Binding was recorded as a function of time and kinetic rate constants were calculated.

[6] = target: T1, mouse Transferrin Receptor …; assay: mTfR binding cell-based assay
Description: as §1

[7] = target: mouse Transferrin Receptor overexpressed on Hek 293 cells (mouse) (UniProt Q62351); assay: TfR binding EC50, cell-based assay (repeats Table 7)
[8] = target: rmTfR (119-763) (mouse) (UniProt Q62351); assay: Biacore SPR, antibody captured by anti-human IgG Fc, rmTfR (119-763) in solution
[9] = target: mouse Transferrin Receptor overexpressed on Hek 293 cells (mouse) (UniProt Q62351); assay: binding signal on TfR against 'Ab, ng/ml'; format not stated for this figure, Examples 4 and 9 describe the cell-based Hek293/mTfR MSD-ECL binding assay
[10] = target: T1, mouse Transferrin Receptor …; assay: 293/mTfR cell-based assay
Description: as §1

[11] = target: T3, TNF (mouse, UniProt P06804 80-235); assay: cell-based or functional assay
T3 sequence (looked up): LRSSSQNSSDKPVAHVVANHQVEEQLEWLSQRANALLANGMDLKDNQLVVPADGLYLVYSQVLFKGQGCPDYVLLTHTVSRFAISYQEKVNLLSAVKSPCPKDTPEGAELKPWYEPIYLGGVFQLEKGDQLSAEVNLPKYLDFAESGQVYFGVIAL

T1 sequence (Q62351 whole entry): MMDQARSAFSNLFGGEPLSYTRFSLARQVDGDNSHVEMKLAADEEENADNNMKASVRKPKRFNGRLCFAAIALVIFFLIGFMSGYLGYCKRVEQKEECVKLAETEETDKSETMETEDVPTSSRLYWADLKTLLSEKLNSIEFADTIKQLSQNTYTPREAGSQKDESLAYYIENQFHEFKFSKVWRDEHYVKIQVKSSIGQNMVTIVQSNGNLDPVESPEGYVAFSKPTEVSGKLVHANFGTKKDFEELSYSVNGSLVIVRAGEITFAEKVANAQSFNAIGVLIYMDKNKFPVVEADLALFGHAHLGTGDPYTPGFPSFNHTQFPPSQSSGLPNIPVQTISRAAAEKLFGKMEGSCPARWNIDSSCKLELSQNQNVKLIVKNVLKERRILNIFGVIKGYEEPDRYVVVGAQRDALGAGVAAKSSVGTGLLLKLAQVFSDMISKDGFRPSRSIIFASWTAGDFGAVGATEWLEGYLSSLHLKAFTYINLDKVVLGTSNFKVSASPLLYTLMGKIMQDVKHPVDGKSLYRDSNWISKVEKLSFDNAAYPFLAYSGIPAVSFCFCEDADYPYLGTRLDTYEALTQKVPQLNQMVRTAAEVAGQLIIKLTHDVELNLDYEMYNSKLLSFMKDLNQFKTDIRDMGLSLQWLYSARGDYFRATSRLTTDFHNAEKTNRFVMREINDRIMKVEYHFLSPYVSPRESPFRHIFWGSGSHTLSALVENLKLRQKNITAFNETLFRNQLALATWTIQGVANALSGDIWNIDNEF
Chain of mouse Transferrin Receptor overexpressed on Hek 293 cells (mouse) (Q62351 whole entry): as above
Chain of rmTfR (119-763) (mouse) (Q62351 119-763): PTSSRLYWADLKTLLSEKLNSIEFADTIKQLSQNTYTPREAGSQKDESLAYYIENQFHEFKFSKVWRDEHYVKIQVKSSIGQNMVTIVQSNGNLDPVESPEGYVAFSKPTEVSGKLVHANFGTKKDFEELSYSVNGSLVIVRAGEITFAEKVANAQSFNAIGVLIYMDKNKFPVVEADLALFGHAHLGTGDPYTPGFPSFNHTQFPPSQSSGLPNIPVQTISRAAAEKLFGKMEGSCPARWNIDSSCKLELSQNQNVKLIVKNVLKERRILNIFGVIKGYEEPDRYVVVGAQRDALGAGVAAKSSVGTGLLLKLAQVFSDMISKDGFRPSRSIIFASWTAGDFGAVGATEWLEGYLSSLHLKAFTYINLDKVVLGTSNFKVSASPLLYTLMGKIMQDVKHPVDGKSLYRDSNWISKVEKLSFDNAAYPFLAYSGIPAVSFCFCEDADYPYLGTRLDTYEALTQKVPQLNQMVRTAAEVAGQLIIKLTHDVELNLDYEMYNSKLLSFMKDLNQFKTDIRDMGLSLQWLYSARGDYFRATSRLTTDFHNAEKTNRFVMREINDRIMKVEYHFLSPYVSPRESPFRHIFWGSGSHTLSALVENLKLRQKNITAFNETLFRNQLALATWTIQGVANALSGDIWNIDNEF
T2 sequence (Q62351 123-763): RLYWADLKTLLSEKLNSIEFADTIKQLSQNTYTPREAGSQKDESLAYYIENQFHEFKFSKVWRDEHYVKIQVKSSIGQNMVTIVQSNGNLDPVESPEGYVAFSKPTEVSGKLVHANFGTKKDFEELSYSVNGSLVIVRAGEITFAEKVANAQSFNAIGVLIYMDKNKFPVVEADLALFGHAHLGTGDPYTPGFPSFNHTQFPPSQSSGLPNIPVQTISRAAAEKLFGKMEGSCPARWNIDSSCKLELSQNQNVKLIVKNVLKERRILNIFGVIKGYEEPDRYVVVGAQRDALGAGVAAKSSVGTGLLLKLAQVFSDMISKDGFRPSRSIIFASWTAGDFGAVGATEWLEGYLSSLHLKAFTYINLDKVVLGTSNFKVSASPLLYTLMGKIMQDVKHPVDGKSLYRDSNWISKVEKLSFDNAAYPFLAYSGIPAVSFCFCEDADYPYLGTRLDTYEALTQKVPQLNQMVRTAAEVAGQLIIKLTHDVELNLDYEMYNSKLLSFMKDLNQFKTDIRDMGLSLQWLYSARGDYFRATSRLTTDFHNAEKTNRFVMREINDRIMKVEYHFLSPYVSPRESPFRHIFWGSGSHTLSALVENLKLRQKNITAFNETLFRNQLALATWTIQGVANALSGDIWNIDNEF

- EC50 [1]: 1.2 nM
- EC50 [2]: 1.2 nM
B1: DVD2671 (bispecific antibody)
VH: EVQLLESGGGLVQPGGSLRLSCAASGFTFSNYGMSWVRQAPGKGLEWVASIRSGGGRTYYSDNVKGRFTISRDNSKNTLYLQMNSLRAEDTAVYYCVRYDHYSGSSDYWGQGTLVTVSSASTKGPSVFPLAPEVQLVESGGGLVQPGNSLTLSCVASGFTFSNYGMHWIRQAPKKGLEWIAMIYYDSSKMNYADTVKGRFTISRDNSKNTLYLEMNSLRSEDTAMYYCAVPTSHYVVDVWGQGVSVTVSS
VL: DVVMTQSPLSLPVTPGEPASISCKSSQSLLDSDGKTYLNWLLQKPGQSPQRLIYLVSKLDSGVPDRFSGSGSGTDFTLKISRVEAEDVGVYYCWQGTHFPRTFGQGTKVEIKRTVAAPDIQMTQSPASLSASLEEIVTITCQASQDIGNWLAWYQQKPGKSPQLLIYGATSLADGVPSRFSGSRSGTQFSLKISRVQVEDIGIYYCLQAYNTPWTFGGGTKLELK
notes: DVD-Ig; also called AbetaLSTfR

- EC50 [3]: 0.06 nM
- EC50 [4]: 0.06 nM
- Kd [5]: 3.7 nM
- koff [5]: 6.12e-05 s⁻¹
- kon [5]: 16400 M⁻¹ s⁻¹
B2: AB402 (antibody, from another filing, V domains shown)
VH: EVQLVESGGGLVQPGGSLRLSCAASGFTFSNYGMHWIRQAPGKGLEWIAMIYYDSSKMNYADTVKGRFTISRDNAKNSLYLQMNSLRAEDTAVYYCAVPTSHYVVDVWGQGTTVTVSS
VL: AIQMTQSPSSLSASVGDRVTITCQASQDIGNWLAWYQQKPGKSPKLLIYGATSLADGVPSRFSGSRSGTDFTLTISSLQPEDFATYYCLQAYNTPWTFGGGTKVEIKR

- EC50 [6]: 0.09 nM
- Kd [5]: 3.8 nM
- koff [5]: 8.39e-05 s⁻¹
- kon [5]: 22000 M⁻¹ s⁻¹
- EC50 [2]: 0.09 nM
B3: AB403 (antibody, V domains shown)
VH: B2 VH
VL: EIVMTQSPATLSVSPGERATLSCQASQDIGNWLAWYQQKPGQSPRLLIYGATSLADGVPARFSGSRSGTEFTLTISSLQSEDFAVYYCLQAYNTPWTFGGGTKVEIK
notes: also called humanized variant of AB221

- EC50 [7]: 0.1 nM
- Kd [8]: 5 nM
- koff [8]: 0.000181 s⁻¹
- kon [8]: 39400 M⁻¹ s⁻¹
- EC50 (read off the curve) [9]: 0.03 µg/mL
- EC50 [3]: 0.12 nM
- EC50 [4]: 0.1 nM
B4: AB221 (antibody, from another filing, V domains shown)
VH: EVQLVESGGGLVQPGNSLTLSCVASGFTFSNYGMHWIRQAPKKGLEWIAMIYYDSSKMNYADTVKGRFTISRDNSKNTLYLEMNSLRSEDTAMYYCAVPTSHYVVDVWGQGVSVTVSS
VL: DIQMTQSPASLSASLEEIVTITCQASQDIGNWLAWYQQKPGKSPQLLIYGATSLADGVPSRFSGSRSGTQFSLKISRVQVEDIGIYYCLQAYNTPWTFGGGTKLELKR

- EC50 [10]: 1.68 nM
- L929 TNF Neutralization assay IC50 [11]: 0.59 nM
B5: muTNF(8C11)-GS-muTfR(AB221) (bispecific antibody)
VH: EFQLQQSGPELVKPGASVRISCKASGYSFTDYNMNWVKQSNGKSLEWVGVINPNYGSSTYNQKFKGKATLTVDQSSSTAYMQLNSLTSEDSAVYYCARKWGQLGRGFFDVWGTGTTVTVSSGGGGSGGGGSEVQLVESGGGLVQPGNSLTLSCVASGFTFSNYGMHWIRQAPKKGLEWIAMIYYDSSKMNYADTVKGRFTISRDNSKNTLYLEMNSLRSEDTAMYYCAVPTSHYVVDVWGQGVSVTVSS
VL: QIVLSQSPAILSASPGEKVTMTCRASSSVSYMHWFQQKPGSSPKPWIYATSNLASGVPARFSGSGSGTSYSLTISRVEAEDAATYYCQQWSSSPLTFGAGTKLELKRGGSGGGGSGDIQMTQSPASLSASLEEIVTITCQASQDIGNWLAWYQQKPGKSPQLLIYGATSLADGVPSRFSGSRSGTQFSLKISRVQVEDIGIYYCLQAYNTPWTFGGGTKLELK
notes: DVD-Ig; outer 8C11 (TNF), inner AB221 (TfR); also called 8C11-GS-AB221 DVD-Ig protein; TNF-GS-AB221; copies: 2 + 2
